Data from paper PMC6190850, “The RNA-Recognition Motifs of TAR DNA-Binding Protein 43 May Play a Role in the Aberrant Self-Assembly of the Protein”.

Tests used:
Details in all cases: protein: recombinant; tags: 6xHis-SUMO removed by TEV; single strand
[1] = molecular target: TDP-43 RRM1 (with 15-aa C-terminal linker) (UniProt Q13148 102-191); experiment: BLI; BLI (Octet RED), 10 mM potassium phosphate pH 7.2, 150 mM KCl, 0.05% Tween, 25 C; RNA on streptavidin sensors, protein 1 nM-15 uM
TDP-43 RRM1-2 = TDP-43 RRM1-2 (UniProt Q13148 102-269); experiment: as above
TDP-43 RRM2 = TDP-43 RRM2 (UniProt Q13148 192-269); experiment: BLI; no Kd could be determined, protein up to 15 uM; BLI (Octet RED), 10 mM potassium phosphate pH 7.2, 150 mM KCl, 0.05% Tween, 25 C; RNA on streptavidin sensors, protein 1 nM-15 uM
Sequence of TDP-43 RRM2 (Q13148 192-269): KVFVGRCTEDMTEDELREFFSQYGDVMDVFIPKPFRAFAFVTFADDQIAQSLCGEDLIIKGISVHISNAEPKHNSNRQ

Sequence of TDP-43 RRM1 (with 15-aa C-terminal linker) (Q13148 102-191): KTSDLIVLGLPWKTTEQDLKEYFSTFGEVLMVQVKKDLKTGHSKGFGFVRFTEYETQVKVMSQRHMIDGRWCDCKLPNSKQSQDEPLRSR
Sequence of TDP-43 RRM1-2 (Q13148 102-269): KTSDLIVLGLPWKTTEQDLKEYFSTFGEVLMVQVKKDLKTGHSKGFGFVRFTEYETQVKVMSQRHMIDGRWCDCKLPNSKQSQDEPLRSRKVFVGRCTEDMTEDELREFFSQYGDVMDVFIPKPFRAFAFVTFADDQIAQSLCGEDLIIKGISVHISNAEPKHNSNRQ

Binder | Kd [1] [nM] | Kd (TDP-43 RRM1-2) [nM] | binding result (TDP-43 RRM2)
GUGUGAAUGAAU (ssRNA) [AUG12] | 480 ± 90 | 3.9 | 
AUUCAUUCACAC (ssRNA) [NegAUG12] | 2550 ± 480 | 2600 ± 600 | no binding
